Laboratory results reported in the supplement of paper PMC10567573.

B1: RSPH3 (parent)
chain: KAASLARNLAKRRRTYLGGAAGRS

Variants of: B1
Assay: protein stability index of a GFP-peptide fusion (GPS, HEK-293T) (PSI 1-6); higher = more stable
Conditions: c terminus: a fixed tail appended
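Note: lentivirally expressed fusions sorted by FACS into six bins by GFP to DsRed ratio, PSI derived from sequencing read proportions per bin multiplied by bin number.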

Row | Variant | protein stability index
1 | KAASLARNLAKRRRTYLGGAAGHS [R23H] | 2.37
2 | KAASLARNLAKRRRTYLGGAAGFS [R23F] | 1.63
3 | KAASLARNLAKRRRTYLGGAAGVS [R23V] | 2.15
4 | KAASLARNLAKRRRTYLGGAAGWS [R23W] | 1.61
5 | KAASLARNLAKRRRTYLGGAAGMS [R23M] | 2
6 | KAASLARNLAKRRRTYLGGAAGIS [R23I] | 1.59
7 | KAASLARNLAKRRRTYLGGAAGGS [R23G] | 1.85
8 | KAASLARNLAKRRRTYLGGAAGQS [R23Q] | 1.23
9 | KAASLARNLAKRRRTYLGGAAGDS [R23D] | 2.61
10 | KAASLARNLAKRRRTYLGGAAGCS [R23C] | 1.99
11 | KAASLARNLAKRRRTYLGGAAGLS [R23L] | 1.83
12 | KAASLARNLAKRRRTYLGGVAGRS [A20V] | 2.6
13 | KAASLARNLAKRRRTYLGGGAGRS [A20G] | 3.39
14 | KAASLARNLAKRRRTYLGGDAGRS [A20D] | 3.98
15 | KAASLARNLAKRRRTYLGGRAGRS [A20R] | 2.98
16 | KAASLARNLAKRRRTYLGGSAGRS [A20S] | 1.72
17 | KAASLARNLAKRRRTYLGGWAGRS [A20W] | 2.48
18 | KAASLARNLAKRRRTYLGGEAGRS [A20E] | 2.45
19 | KAASLARNLAKRRRTYLGGTAGRS [A20T] | 2.35
20 | KAASLARNLAKRRRTYLGGHAGRS [A20H] | 2.59
21 | KAASLARNLAKRRRTYLGGMAGRS [A20M] | 2.42
22 | KAASLARNLAKRRRTYLGGAAGRL [S24L] | 2.04
23 | KAASLARNLAKRRRTYLGGAAGRP [S24P] | 1.83
24 | KAASLARNLAKRRRTYLGGAAGRH [S24H] | 2.41

Row | Variant | protein stability index
25 | KAASLARNLAKRRRTYLGGAAGRI [S24I] | 3.4
26 | KAASLARNLAKRRRTYLGGAAGRA [S24A] | 2.7
27 | KAASLARNLAKRRRTYLGGAAGRR [S24R] | 2.32
28 | KAASLARNLAKRRRTYLGGAAGRN [S24N] | 1.85
29 | KAASLARNLAKRRRTYLGGAAGRE [S24E] | 2.01
30 | KAASLARNLAKRRRTYLGGAAGRQ [S24Q] | 3.37
31 | KAASLARNLAKRRRTYLGGAAGRF [S24F] | 1.94
32 | KAASLARNLAKRRRTYLGGAAGRC [S24C] | 2.11
33 | KAASLARNLAKRRRTYLGGAAGRM [S24M] | 2.2
34 | KAASLARNLAKRRRTYLGGAAGRK [S24K] | 2
35 | KAASLARNLAKRRRTYLGGAAGRD [S24D] | 3.31
36 | KAASLARNLAKRRRTYLGFAAGRS [G19F] | 2.03
37 | KAASLARNLAKRRRTYLGRAAGRS [G19R] | 2.93
38 | KAASLARNLAKRRRTYLGTAAGRS [G19T] | 2.38
39 | KAASLARNLAKRRRTYLGPAAGRS [G19P] | 1.46
40 | KAASLARNLAKRRRTYLGIAAGRS [G19I] | 1.87
41 | KAASLARNLAKRRRTYLGSAAGRS [G19S] | 3.14
42 | KAASLARNLAKRRRTYLGCAAGRS [G19C] | 1.97
43 | KAASLARNLAKRRRTYLGHAAGRS [G19H] | 2.59
44 | KAASLARNLAKRRRTYLGEAAGRS [G19E] | 2.13
45 | KAASLARNLAKRRRTYLGQAAGRS [G19Q] | 3.22
46 | KAASLARNLAKRRRTYLGWAAGRS [G19W] | 1.67
47 | KAASLARNLAKRRRTYLGNAAGRS [G19N] | 2.68
